The results in this text go back to US20250180582A1 (XIAMEN INNOBIOMAX BIOTECHNOLOGY, published 2025).

What all share (test): indirect ELISA, cell supernatant, antigen coated 200 ng/mL
Assay [1] deals with T1, pET-32a-GPR37-1-613 full-length antigen (human, UniProt O15354 27-613).
T1 construct: Expressed in Escherichia coli from pET-32a and purified; also called Antigen 1; not shown: fusion partner/tags encoded by the pET-32a vector
T1 sequence: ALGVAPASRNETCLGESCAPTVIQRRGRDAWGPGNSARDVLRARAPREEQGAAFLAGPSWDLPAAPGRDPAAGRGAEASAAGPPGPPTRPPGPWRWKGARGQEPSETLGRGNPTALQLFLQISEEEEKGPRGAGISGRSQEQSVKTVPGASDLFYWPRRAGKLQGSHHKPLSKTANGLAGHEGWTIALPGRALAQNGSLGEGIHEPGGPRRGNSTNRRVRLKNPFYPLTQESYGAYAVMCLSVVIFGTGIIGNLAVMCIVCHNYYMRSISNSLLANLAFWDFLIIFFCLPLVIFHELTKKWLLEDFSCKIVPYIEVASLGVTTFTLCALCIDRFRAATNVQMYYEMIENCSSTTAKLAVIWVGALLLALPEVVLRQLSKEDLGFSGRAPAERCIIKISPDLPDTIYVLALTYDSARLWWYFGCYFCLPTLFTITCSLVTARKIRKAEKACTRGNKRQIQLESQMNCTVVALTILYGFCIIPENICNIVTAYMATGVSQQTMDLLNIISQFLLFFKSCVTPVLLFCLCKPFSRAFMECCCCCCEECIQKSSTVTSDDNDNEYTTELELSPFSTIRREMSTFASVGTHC
On the procedure: (§1) 3.6 Screening of hybridomas: Antigen 1 was used for primary screening, and two antigens that were also fused to pET-32a were used as accessory means for differential screening, in which both antigens were from Inbermax (Catalog No.: E11024, Catalog No.: E1212), and the self-made recombinant Antigen 2 and Antigen 3 were used at the same for identification. The screening method was an indirect ELISA, and its specific steps comprised: the plate was coated with the antigen at 200 ng/mL, 100 ul per well, added with 50 μL of cell supernatant, incubated at 37° C. for 30 minutes, washed 5 times with a plate washer, added with 100 ul of GAM-HRP prepared at 1:5K, incubated at 37° C. for 30 minutes, washed 5 times with a plate washer, added with a chromogenic solution at 100 ul/well, incubated at 37° C. for 15 minutes, added with a stop solution to terminated the reaction, and placed in a microplate reader to read signal values using dual wavelengths. Based on the experimental results, the cells in the corresponding positive wells were selected for the next step work.
(§2) 3.7 Cloning of hybridoma cells: Using the limiting dilution method, the cells were first diluted in gradient at certain concentrations, and then inoculated into each well of a 96-well cell culture plate, so that only one cell grew in the well as much as possible. The hybridoma monoclonal positive cell line was repeatedly cloned at least 3 times, and were confirmed as a stable clone after the final round was 100% positive. The positive standards were as described in 3.6.

For assay [2], the target named is T2, pCold-TF-GPR37-1-613 full-length antigen (human, UniProt O15354 27-613).
T2 construct: Target fragment of Antigen 1 moved into the pCold-TF expression vector; also called Antigen 2; not shown: TF fusion partner encoded by the pCold-TF vector
T2 sequence: T1 sequence
On the procedure: as §1, §2

The target in assay [3] is T3, pCold-TF-GPR37-1-265 extracellular segment protein (human, UniProt O15354 27-265).
T3 construct: also called Antigen 3; not shown: TF fusion partner encoded by the pCold-TF vector
T3 sequence: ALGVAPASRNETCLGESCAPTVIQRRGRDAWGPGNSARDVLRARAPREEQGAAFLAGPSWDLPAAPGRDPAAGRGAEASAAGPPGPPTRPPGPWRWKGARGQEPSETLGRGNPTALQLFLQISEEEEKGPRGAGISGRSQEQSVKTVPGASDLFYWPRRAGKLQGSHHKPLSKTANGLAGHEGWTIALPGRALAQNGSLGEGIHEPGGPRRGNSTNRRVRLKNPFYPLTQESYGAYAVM
How it is done:
as §1, §2

The target in assay [4] is T4, antigen fused to pET-32a from Inbermax, Catalog No.: E11024.
T4 construct: Used for differential screening against the pET-32a fusion part
On the procedure:
as §1, §2

Assay [5] deals with T5, antigen fused to pET-32a from Inbermax, Catalog No.: E1212.
T5 construct: Used for differential screening against the pET-32a fusion part
On the procedure: as §1, §2

B1: monoclonal antibody 5A2 (antibody, IgG2a, V domains shown)
VH: EVKLVESGGGLVQPGGSLRLSCATSGFIFSDYYMSWVRQPPGKALEWLGYIRNKAKRYTTEYNASVKGRFTISRDNSQNILYLQMNTLRAEDSATYYCARDTSDYDRFAYWGQGTLVTVSA
VL: DIVMTQTPLSLPVSLGDHASLSCKSSQSLVHRNGNTYLHWFLQKPGQSPKLLIYKVSNRFSGVPDRFSGSGSGTDFTLKISRVEAADLGVYFCSQSTLLPYTFGGGTKLEIK
notes: Mouse hybridoma antibody; also called mAb 5A2; 5A2-HRP
With B1, the ELISA signal in assay [1] is 2.83 OD; in assay [2], 6.24 OD; in assay [3], 3.37 OD; in assay [4], 0.008 OD; in assay [5] it was 0.011 OD.

B2: monoclonal antibody 6D2 (antibody, IgG2a, V domains shown)
VH: EVMLVESGGGLVKPGGSLKLSCAASGFIFSSQAMSWVRQIPEKRLEWVATISSGGSYTYYPDSVKGRFTISRDNAKNTLYLQMSSLTSEDTAMYYCARQRDFGRYYGYDPFFDFWGQGTTLTF
VL: EIVLTQSPTTMAASPGEKITITCSASSSISSNYLHWYQQKPGFSPKLLIYRTSNLPSGVPARFSGSGSGTSYSLTIGTMEAEDVATYYCQQGSSVPRITFGAGTKLE
notes: Mouse hybridoma antibody; also called mAb 6D2
As for B2, the ELISA signal in assay [1] was 3.37 OD; in assay [2], 2.81 OD; in assay [3] it was 3.54 OD; in assay [4], 0.009 OD; in assay [5], 0.01 OD.
